Laboratory results: paper PMC9692976, “Characterization of a Glycolipid Synthase Producing α-Galactosylceramide in Bacteroides fragilis” (International Journal of Molecular Sciences, 2022)

Experiments:
[1] = target: T1, αGalCer_GT (BF9343_3149; αCerGal_GT) (Bacteroides fragilis, UniProt A0A380YRQ3); test: HPLC with fluorescence detection of αGalCer-NBD, initial rates; type: biochemical; conditions: substrate inhibition constant; second site; 1.25 mM UDP-Gal, Cer-NBD solubilized with equimolar BSA, pH 7.5, 37 °C; labelled compound
T1 construct: full length, SUMO fusion at N-terminus and Strep-tag (C-terminal in Results; Methods also says N-terminal Strep-tag), tags kept, codon-optimised gene, E. coli BL21(DE3) Star, StrepTrap purified
T1 sequence (A0A380YRQ3 entry or part of it): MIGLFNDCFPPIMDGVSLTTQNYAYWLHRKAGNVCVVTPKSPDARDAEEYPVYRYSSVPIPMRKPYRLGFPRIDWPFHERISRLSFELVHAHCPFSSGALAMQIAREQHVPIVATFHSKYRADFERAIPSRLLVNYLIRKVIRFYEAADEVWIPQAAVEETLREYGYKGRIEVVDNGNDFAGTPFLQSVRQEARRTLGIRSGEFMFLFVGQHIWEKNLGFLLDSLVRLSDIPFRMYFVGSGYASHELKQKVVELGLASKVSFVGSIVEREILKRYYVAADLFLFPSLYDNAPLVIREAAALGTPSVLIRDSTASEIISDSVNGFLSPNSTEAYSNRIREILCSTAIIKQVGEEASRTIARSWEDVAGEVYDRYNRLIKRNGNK

[2] = system: CCCCCCCCCCCCC/C=C/[C@@H](O)[C@H](CO)NC(=O)CCCCCNc1ccc([N+](=O)[O-])c2nonc12; test: purified protein; conditions: 1.25 mM UDP-Gal, Cer-NBD solubilized with equimolar BSA, pH 7.5, 37 °C, fit with substrate inhibition, labelled compound
[3] = system: O=c1ccn([C@@H]2O[C@H](COP(=O)(O)OP(=O)(O)O[C@H]3O[C@H](CO)[C@H](O)[C@H](O)[C@H]3O)[C@@H](O)[C@H]2O)c(=O)[nH]1; test: purified protein; conditions: 25 µM Cer-NBD with equimolar BSA, pH 7.5, 37 °C, fit with substrate inhibition

| Compound | KI [1] | Km [2] | Km [3] |
| --- | --- | --- | --- |
| CCCCCCCCCCCCC/C=C/[C@@H](O)[C@H](CO)NC(=O)CCCCCNc1ccc([N+](=O)[O-])c2nonc12 [Cer-NBD, N-[6-[(7-nitro-2-1,3-benzoxadiazol-4-yl)amino]hexanoyl]-D-erythro-sphin-gosine] | 161 µM |  |  |
| αGalCer_GT (BF9343_3149; αCerGal_GT) (Bacteroides fragilis NCTC 9343) |  | 4.6 µM | 218 µM |
